Tested on: T1, Nc1ncnc2c1ncn2[C@H]1C[C@H](O)[C@@H](COP(=O)(O)O)O1
T1 construct: C-terminal 6x His tag (pET24a), kept; E. coli BL21(DE3) host; Ni-NTA
Experiment: purified protein
Type: biochemical, Escherichia coli
Conditions: 2 mM ATP, 10 mM Mg acetate, 50 mM K acetate, 20 mM Tris-acetate, 37°C, three protein batches (N = 3)

Substance: adenylate kinase (adk) (Escherichia coli K-12)
- Km: 359 ± 84 µM
- Vmax: 47.9 µmol/min/mg

— PMC10952841, “Biocatalytic synthesis of 2′‐deoxynucleotide 5′‐triphosphates from bacterial genomic DNA: Proof of principle” (Biotechnology and Bioengineering, 2023)
